The data set has as its target carcinoembryonic antigen (CEA) (UniProt P06731 35-685). As to the kind of experiment: amperometric aptasensor (electrode-immobilized aptamer, HRP-CD label); HRP-CD, H2O2; detection range 10 pg/mL to 1 ng/mL, LOD 3.1 pg/mL (not a Kd); Aptamer electrode washed in 20 mM Tris-HCl pH 7.4, 100 mM NaCl, 5 mM MgCl2; casein block; read-out in 0.1 M sodium phosphate pH 7.4 with H2O2; CEA incubation buffer and temperature not in the material. The following applies: protein: commercial; label: 5' thiol on gold nanoparticles; 3' adamantane for HRP-cyclodextrin; hairpin.

carcinoembryonic antigen (CEA), sequence (P06731 35-685): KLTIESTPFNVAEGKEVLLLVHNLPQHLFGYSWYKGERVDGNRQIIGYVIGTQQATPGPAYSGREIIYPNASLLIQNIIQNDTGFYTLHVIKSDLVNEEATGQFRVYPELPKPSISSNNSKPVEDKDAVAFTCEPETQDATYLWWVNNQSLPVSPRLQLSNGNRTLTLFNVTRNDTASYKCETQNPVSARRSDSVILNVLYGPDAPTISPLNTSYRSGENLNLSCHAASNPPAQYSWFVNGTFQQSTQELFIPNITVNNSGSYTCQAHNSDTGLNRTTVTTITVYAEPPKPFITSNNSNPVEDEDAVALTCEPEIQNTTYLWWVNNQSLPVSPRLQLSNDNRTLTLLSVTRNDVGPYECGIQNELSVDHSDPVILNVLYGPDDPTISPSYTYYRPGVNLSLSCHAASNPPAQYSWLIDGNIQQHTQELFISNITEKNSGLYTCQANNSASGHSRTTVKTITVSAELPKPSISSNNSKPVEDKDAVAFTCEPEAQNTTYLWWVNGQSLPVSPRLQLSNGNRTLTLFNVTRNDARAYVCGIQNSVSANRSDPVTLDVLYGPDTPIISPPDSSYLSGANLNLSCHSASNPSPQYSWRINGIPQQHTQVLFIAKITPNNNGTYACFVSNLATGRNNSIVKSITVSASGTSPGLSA

B1: Apt-ADA (anti-CEA aptamer) (structured_DNA)
DNA: CCACGATACCAGCTTATTCAATTCGTGG
modifications: 5'-HS-(CH2)6; 3'-(CH2)6-NH2 converted to adamantane (ADA)
Turning to B1, the binding result is “binds”.

These data come from article PMC9313153, “Supramolecular Enzymatic Labeling for Aptamer Switch-Based Electrochemical Biosensor”.
